According to patent US20060234940A1:

Target: recombinant human DP IV, wild type (human) (UniProt P27487)
Test: photometric assay, competition with the standard substrate GP-4NA

Sequence of recombinant human DP IV, wild type (human) (P27487 other isoform, or with tags, fused parts or gaps): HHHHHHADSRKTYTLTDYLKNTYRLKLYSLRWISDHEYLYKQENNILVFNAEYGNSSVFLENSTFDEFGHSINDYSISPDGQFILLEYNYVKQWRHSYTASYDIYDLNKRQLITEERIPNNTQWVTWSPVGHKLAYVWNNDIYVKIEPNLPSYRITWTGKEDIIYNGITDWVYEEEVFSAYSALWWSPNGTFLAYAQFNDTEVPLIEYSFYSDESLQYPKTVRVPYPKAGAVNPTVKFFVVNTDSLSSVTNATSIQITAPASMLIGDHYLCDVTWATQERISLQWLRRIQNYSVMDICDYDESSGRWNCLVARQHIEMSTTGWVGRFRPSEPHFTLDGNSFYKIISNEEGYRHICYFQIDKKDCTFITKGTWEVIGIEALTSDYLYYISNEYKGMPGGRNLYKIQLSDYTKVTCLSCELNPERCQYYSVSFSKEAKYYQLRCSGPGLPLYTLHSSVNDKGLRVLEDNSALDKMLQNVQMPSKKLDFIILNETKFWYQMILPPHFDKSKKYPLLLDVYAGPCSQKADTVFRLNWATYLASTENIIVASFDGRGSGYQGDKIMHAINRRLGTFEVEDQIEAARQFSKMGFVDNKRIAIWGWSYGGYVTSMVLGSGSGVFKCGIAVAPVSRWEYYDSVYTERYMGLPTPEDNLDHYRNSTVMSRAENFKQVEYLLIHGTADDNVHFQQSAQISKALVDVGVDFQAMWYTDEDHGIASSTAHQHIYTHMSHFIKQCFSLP

Q: With “PACAP-27 (from UniProt P18509 132-158) (peptide)” as the substance, how does the Ki read?
A: 113 µM
